Experimental data: the supplement of paper PMC9170038

Test system: MS2 coat protein
Assay: apparent KD of MS2 coat protein; designed switch direction (-1 OFF switch, 1 ON switch): -1; higher = weaker reporter binding
How it was run: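 Three titration conditions were used: no input, 200 uM small-molecule ligand, and an oligonucleotide input. In each, SNAP-549-labelled MS2 coat protein was raised from 0.7 or 1.5 nM, doubling, to 3 µM over designed RNA switches transcribed on Illumina chips by stalled E. coli RNA polymerase. Curve fits of normalised cluster fluorescence gave values whose per-design median over clusters is the apparent KD.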

[1] = input ligand: microRNA oligo, concentration not stated
[2] = Eterna round: R95, input ligand: FMN 200 uM
[3] = Eterna round: R95, input ligand: microRNA oligo, concentration not stated
[4] = Eterna round: R95, input ligand: none

Sequence	apparent KD of MS2 coat protein (input ligand: FMN 200 uM) [µM]	apparent KD of MS2 coat protein (input ligand: none) [µM]	apparent KD of MS2 coat protein [1] [µM]	apparent KD of MS2 coat protein [2] [µM]	apparent KD of MS2 coat protein [3] [µM]	apparent KD of MS2 coat protein [4] [µM]
GAAAAGGCAGAGGAUAUUUCAGAUCAAAGCUGCAAAGAAGGCUGCACAUGAGGAUCACCCAUGUGGUCUUAAAA [Mod of Quesina 5 - Jieux - Exclusion 6] (Eterna round: R97, puzzle: Exclusion 6)	0.176	0.0184				
CAAUGACAUGAGGAUCACCCAUGUGAGGAUAUGGAGCGAGACCGCGCGGUCGCGUACACCAGAAGGCGCAGGCG [1st #66] (Eterna round: R97, puzzle: Exclusion 1)	0.0893	0.0379				
UGAGUGCUGCGAGGAUAUACAUGAGGAUCACCCAUGUAAUCGUGUGAGGCAAAGCCUCACACGAAGUAGAAGGCGCAGUACUCU [Mat - Exclusion NG 2 - Mod of JL - D17] (Eterna round: R96, puzzle: Exclusion NG 2)	0.016	0.0185	0.0114			
GGUUGGCGAGGAUAUACAUGAGGAUCACCCAUGUGAGAGAAAAAAGUGAGGAAGACAAGUAGAAGGCGCUGACG [salish99_ex3_r3_035] (puzzle: Exclusion 3)				8.54	0.237	0.125
AGUACUAACACGAAAGUGUUAGUACAAUAAGCUUGUGAAACAUGAGGAUCACCCAUGUCCUCGUAAGCUCGUCUUAU [salish99_TOv2_r3_048] (puzzle: Sensor v3, turn-off variant 2)				0.04	0.62	0.0377
UACUUGUUAGGAUAUCUUACAUUUGCAUUAUAGCAACUAUUGGAGAAGGGACAUGAGGAUCACCCAUGUUUGGG [tap-tap-tappy16] (Eterna round: R97, puzzle: Exclusion 4)	0.602	0.486				
GUCGUGCGGCAGUGCUGUACGAGUACAUGAGGAUCACCCAUGUAGGAUAUGGUUCGUUUUGCGUGCUAGAAGGGCGUGCGUUUA [Excl-NG3-LRO19] (Eterna round: R96, puzzle: Exclusion NG 3)	0.0184	0.0212	0.0182			
ACAUGAGGAUCACCCAUGUACAGGGUGUAGUUUCAUUGUUUGAAGGAUAUACUUAGUUAGUUGUUGUAGAAGGUCAUAUUUCAU [JR_ExcNG3_Sub001] (Eterna round: R96, puzzle: Exclusion NG 3)	0.126	1.04	0.5			
GCCGUCAGUGUGAGGAUAUGCCUAUGGAUACGUAGGCAGAAGGCACAUGAGGAUCACCCAUGUCCAAAGACGGC [JL-BMX4-4.30 Eli mod] (Eterna round: R97, puzzle: Brourd's mod of Exclusion 4)	0.52	0.181				
GGUUAAUGCAAGGAUAUGCUAUUAUUUUAUUUUGCAGAAGGUGCAACAUGAGGAUCACCCAUGUUGGAGGGUUU [JR_E6_Sub025] (puzzle: Exclusion 6)					0.0186	
GAGAAUUUAUAGGAUAUCGUAUGCAUAAUUUAACGAGAAGGAUGAACAUGAGGAUCACCCAUGUGGUAUCAUGG [salish99_ex6_r3_001] (puzzle: Exclusion 6)				0.0889	0.192	0.122
GUGUACAGAGGAUAUAUAUGAGCUAGGAAACUAGCAAGAUCACAUGAGGAUCACCCAUGUAGAAGGCUGUACAC [Ex2: 735] (Eterna round: R96, puzzle: Exclusion 2)			0.102			
ACGUGAUAUCUGUCGUUGGACAUGAGGAUCACCCAUGUAAGCUUUUUGCUCGUCUUAUAACCCGGUGACAGACCUUC [Dienlave] (puzzle: Sensor v3, turn-off variant 1)				0.0247	0.236	0.0239
GGUACUAACACGAAAGUGUUAGUACAAUAAGCUAGUGGAACAUGAGGAUCACCCAUGUCCUCAUUAGCUCGUCUUAU [Mat - Sensor v3 - Turn-off var 2 - D36] (puzzle: Sensor v3, turn-off variant 2)				0.0145	0.0438	0.015
AGUUGUUCAGGAUAUGAUGUAUGUUACAUGAGGAUCACCCAUGUAGGUCCUGGAUAUGUAUCAGAAGGGAAUAUCU [JR_Ex5_Sub059] (Eterna round: R97, puzzle: Exclusion 5)	0.0408	0.032				
AUUAAACAUGUAGGAUAUGCGUAGCAAAGCUAUGCAGAAGGACAUGAGGAUCACCCAUGUAAAAGCGUCUGAGUACAGAUGCAA [Mat - Exclusion NG 1 - Mod of JL - D88] (Eterna round: R96, puzzle: Exclusion NG 1)	0.936	0.0476	0.0405			
AAGAGGUCAGGAUAUACGGAGAGAGGGAGUUGGUUAGGGUAACAUGAGGAUCACCCAUGUAGAAGGGACUAAGA [JR_Exclu2_Sub079] (puzzle: Exclusion 2)				0.0234	0.0231	0.0251

Sequence	apparent KD of MS2 coat protein (input ligand: FMN 200 uM) [µM]	apparent KD of MS2 coat protein (input ligand: none) [µM]	apparent KD of MS2 coat protein [1] [µM]	apparent KD of MS2 coat protein [2] [µM]	apparent KD of MS2 coat protein [3] [µM]	apparent KD of MS2 coat protein [4] [µM]
GAACAGGUAGGAUAUACUGGACGCGACAUGAGGAUCACCCAUGUCCUCGGCAUAGGCGCUGUAGAAGGGCCUAAAA [Eternabot (Original) Solution 29] (Eterna round: R97, puzzle: Exclusion 5)	0.0299	0.0302				
GAAGUGCACAUGAGGAUCACCCAUGUGGGUGAGCCGUGCCUGAAGGAUAUGGCUCCCGAUGGAGACCAGAAGGUCAGUAAAUAA [Ededor] (Eterna round: R96, puzzle: Exclusion NG 3)	0.367	1.03	0.276			
AAUAACAGAGGAUAUACUAUUUUAUGUGUUUAUUGUUUUGAACAUGAGGAUCACCCAUGUAGAAGGCUGAGUAA [JMF 38] (puzzle: Exclusion 2)					0.0275	
GCUAGAGCAGGAUAUUUAGAUCCUCACAUGAGGAUCACCCAUGUGGCCGAAAGGCUAAGGAGAGAAGGGCUCUAGC [Omei Ex5 E23] (Eterna round: R97, puzzle: Exclusion 5)	1.58	0.933				
GUUUUAUAUGAAGGAUAUACUUAACAUGAGGAUCACCCAUGUGGUGUUGUGAGUGAGUGAGUUUAGUAGAAGGUCAAUUCUUUU [JMF's solution 99] (Eterna round: R96, puzzle: Exclusion NG 2)	0.622	0.408	0.593			
UGAUCUAGCGGAGGAUAUACAUGAGGAUCACCCAUGUAGAUAACUGCACCGUAGUGUAGUAUUGUGUAGAAGGCCGCUAGAUCU [JL ENG2 3.65] (Eterna round: R96, puzzle: Exclusion NG 2)	0.0268	0.0142	0.0114			
CAGGGUAGAGGAUAUACGUAGGUACAGAUCCGUGUGAUCCUACAUGAGGAUCACCCAUGUAGAAGGCUAGCCUG [LRO-Excl2-06] (puzzle: Exclusion 2)					0.332	
GGAUCGAAUGUGAGGAUAUACCUAUGGAAACAUAGGUAGAAGGCACAUGAGGAUCACCCAUGUCCAAACGGUCC [Mat - Exclusion 4 - Eli Mod - D13] (Eterna round: R97, puzzle: Brourd's mod of Exclusion 4)	1.05	0.225				
GCGAUAACCGAGGAUAUCGGUGAUAGAGAUAAUUGAGAAGGCGGUACAUGAGGAUCACCCAUGUAUACGUGGGC [Eternabot (L2) Solution 87] (Eterna round: R97, puzzle: Exclusion 6)	0.0167	0.0157				
GCCUUAGGAGUCAGGAUAUACAAUAAAAUAAUUAAGUAGAAGGGACAUGAGGAUCACCCAUGUACAUUACAUUG [alecazam29] (Eterna round: R97, puzzle: Brourd's mod of Exclusion 4)	0.031	0.0136				
CUUAGUAUCUAGGAUAUCUAGUACAUAGUAUCUAGAGAAGGAGAUACAUGAGGAUCACCCAUGUUCUGUGUUCU [Exclusion 6 - 1:b] (Eterna round: R96, puzzle: Exclusion 6)		0.0248	0.0182			
AGUUAUGCAGGAUAUUGCGGGCCAGACAUGAGGAUCACCCAUGUGUGGGAGUCCUGCGCGCGAGAAGGGCAGACAA [EX5 B.22] (Eterna round: R97, puzzle: Exclusion 5)	0.0289	0.0204				
GAUAGAGCAGGAUAUCGAGAUCCGCACAUGAGGAUCACCCAUGUUCGGUCGAAAGACCGACGAGAAGGGCUGUAUC [Omei Ex5 E7] (Eterna round: R97, puzzle: Exclusion 5)	0.838	4.19				
UUUAAUUUUUUUUUUUUACAAGCUUUUUGCUCGUCUUAUACAUGAGGAUCACCCAUGUAGGUGAAAAGUAAAUUAUC [JMF 45] (puzzle: Sensor v3, turn-off variant 2)				0.0158	0.0821	0.0208
CCAGCAAAUGUAAGGAUAUGCUGGUCCUUGGAUCAGCAGAAGGUACAUGAGGAUCACCCAUGUGUGAAAGCUGG [Eli bmx4 4.57] (Eterna round: R97, puzzle: Brourd's mod of Exclusion 4)	0.674	0.166				
UAUGGUAAAGUCAGGAUAUACGUGCAGAUUUCUAGGUAGAAGGGACAUGAGGAUCACCCAUGUAUGGUAGUGUU [Ex4 #45] (Eterna round: R97, puzzle: Brourd's mod of Exclusion 4)	0.0755	0.0812				
AAAAAACAUGAGGAUCACCCAUGUCAGGAUAUCCGCGAAGGAAAGAAAAAAAAAAAAGGGAGAAGGGACAAAAA [April's Ex-date #4] (puzzle: Exclusion 1)				0.0495	0.0528	0.0285
